assay: yeast display, Sf9 membrane polyspecificity reagent, FACS + sequencing; frameworks hold sequencing errors
In short: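 Nanobodies from a synthetic yeast display library (Saccharomyces cerevisiae BJ5465), induced 36–48 hours with galactose, were stained 1 hour at 4 °C with 10% biotinylated, detergent-solubilized Sf9 membrane reagent, enriched on streptavidin microbeads, then FACS-sorted. Anti-HA (expression) and streptavidin (reagent binding) fluorescence set low and high (top ~1%) gates. Polyreactivity labels come from the gate of origin. Genes were colony-PCR amplified, MiSeq 2 × 250 sequenced and filtered by CDR length.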

Sequence	polyreactivity (PSR sort gate)
QVQLVESGGGLVQAGGSLRLSCAASGSIFYHYAMGWYRQAPGKERELVAAISWRGASTYYADSVKGRFTISRDNAKNTVYLQMNSLKPEDTAVYYCARLSSSHPLYRDEYWGQGTQVTVSS	high polyreactivity
QVQLVESGGGLVQAGGSLRLSCAASGSIFYHYVMGWYRQAPGKERELVAAISSSGRTYYADSVKGRFTISRDNAKNTVYLQMNSLKPEDTAVYYCAADVHFGVGMDYWGQGTQVTVSS	low polyreactivity
QVQLVESGGGLVQAGGSLRLSCAASGSIFYIYAMGWYRKAPGKERELVASIDSGDSTNYADSVKGRFTISRDNAKNTVYLQMNSLKPEDTAVYYCNADTFSELTYYLYIGMDYWGQGTQVTVSS	low polyreactivity
QVQLVESGGGLVQAGGSLRLSCAASGSIFYIYAMGWYRQAPGKERELVAAITWRGGRTYYADSVKGRFTISRDNAKNTVYLQMNSLKPEDTAVYYCAALYAKYYYRYDYWGQGTQVTVSS	high polyreactivity
QVQLVESGGGLVQAGGSLRLSCAASGSIFYKYGMGWYRQAPGKVRVLVAAIRASGDSTYYADSVKGRFTISRDNAKNTVYLQMNSQKPEDTAVYYCAARPNQSYYGLYYYWGQGTQVTVSS	low polyreactivity
QVQLVESGGGLVQAGGSLRLSCAASGSIFYKYTMGWYRQAPGKERELVAAISRSGGSTYYADSVKGRFTISRDNAKNTVYLQMNSLKPEDTAVYYCATTRRVPGEYWGQGTQVTVSS	high polyreactivity
QVQLVESGGGLVQAGGSLRLSCAASGSIFYLNAMGWYRQAPGKERELVAAINRGGSTSYADSVKGRFTISRDNAKNTVYLQMNSLKPEDTAVYYCAADHGGVQYSVRYDYWGQGTQVTVSS	low polyreactivity
QVQLVESGGGLVQAGGSLRLSCAASGSIFYLYAMGWYRQAPGKERELVAAISSSGGRTYYADSVKGRFTISRDNAKNTVYLQMNSLKPEDTAVYYCAARYWAKYSYGYWGQGTQVTVSS	high polyreactivity
QVQLVESGGGLVQAGGSLRLSCAASGSIFYLYAMGWYRQAPGKERELVAAITSGDSTTYADSVKGRFTISRDNAKNTVYLQMNSLKPEDTAVYYCAADWPGLVGYHNSAENDYWGQGTQVTVSS	low polyreactivity
QVQLVESGGGLVQAGGSLRLSCAASGSIFYLYAMGWYRQAPGKERELVATITRGGSTNYADSVKGRFRISRDNAKNTDYVQMNSLKPEDTARYYCNARFFKPPYSKWSSRFDYWGQGTQVTVSS	high polyreactivity
QVQLVESGGGLVQAGGSLRLSCAASGSIFYPYAMGCYRQAPGKERELVAAITSSGGSTYYADSVKGRFTISRDNAKNTVYLQMNSLKPEDTAVYYCNAKGPYTAIYYKPFLGSTRFEYWGQGTQVTVSS	high polyreactivity
QVQLVESGGGLVQAGGSLRLSCAASGSIFYPYAMGWYRQAPGKERELVAAISYSGGSTYYADSVKGSFTISRDNAKNTVYLQMNSMKPEDTAVYYCNRRYWRRPYYKYDYWGQGTQVTVSS	high polyreactivity
QVQLVESGGGLVQAGGSLRLSCAASGSIFYPYAMGWYRQAPGKERELVAAITSSTGSTYYADSVKGRFTISRDHAKNTVYLQMNSLKPEDTAVYYCAAAGYWSYFMMDYWGQGTQVTVSS	low polyreactivity
QVQLVESGGGLVQAGGSLRLSCAASGSIFYPYAMGWYRQAPGKERELVATISWSGSSTYYADSVKGRVTISRDNAKNTVYSQMNSLKPEDTAVYYCAVRYSVLSNYRYYYWGQGTQVTVSS	low polyreactivity
QVQLVESGGGLVQAGGSLRLSCAASGSIFYPYDMGWYRQAPGKERELVATINWSSGRTNYADSVKGRFTISRDNAKNTVYLQMNSLKPEDTAVYYCNAVTYSRRYAYYYWGQATQVTVSS	high polyreactivity
QVQLVESGGGLVQAGGSLRLSCAASGSIFYPYGMGWYRQAPGKEREFVAAISWSGGTTYYADSVKGRFTISRDNAKNTVYLQMNSLKKEDTGVYYCAAVSFYGVGGTWYNYWGKGTQVTVSS	high polyreactivity

Sequence	polyreactivity (PSR sort gate)
QVQLVESGGGLVQAGGSLRLSCAASGSIFYPYVMGRYRQAPGKEREFVAAITTSGGTTYYADSVKGRFTISLDNAKNTVYLKMNSLKPEDTAVYDCAARGTVPGWAIYDYWGQGTEVTVSS	low polyreactivity
QVQLVESGGGLVQAGGSLRLSCAASGSIFYPYVMGWYRQAPGKERELVAAITTSVGSTYYADSVKGRFTISRDNAKNTVYLQMNSLKPEDTAVYYCAAKYFGSRRPGRYNYWGQGTQVTVSS	high polyreactivity
QVQLVESGGGLVQAGGSLRLSCAASGSIFYQNAMGWYRQAPGKERELVAAITSDGSTYYADSVKGRFTISRDNAKNTVYLQMNSLKPEDTAVYYCAAEYYGHRYDYWGQGTQVTVSS	low polyreactivity
QVQLVESGGGLVQAGGSLRLSCAASGSIFYRNAMGWYRQAPGKERELDAAIDSGDSTNYADSVKGRFTISRDNAKNTVYLQMNSLKPEDTAVYYCAARVIYYYGSGPYDYWGQGTQVTVSS	low polyreactivity
QVQLVESGGGLVQAGGSLRLSCAASGSIFYRNAMGWYRQAPGKERELVAAISGRGGSTNYADSVKGRFTISRDNAKNTVYLQMNSLKPEDTAVYYCNRYGVSNILVRGGYWGQGTQVTVSS	high polyreactivity
QVQLVESGGGLVQAGGSLRLSCAASGSIFYRNAMGWYRQAPGKERELVAAISWSGASTYYADSVKGRFTISRDNAKNTVFLQLNSLKPEDTAVYYCATDDFWNVKFYAYYPEFDYWGQGTQVTVSS	low polyreactivity
QVQLVESGGGLVQAGGSLRLSCAASGSIFYRNAMGWYRQAPGKERELVAGITTRGGSTYYADSVKGRFTISRDNAKNTVYLQMNSLKPEDTAVYYCNKYYYYRDSGYWGQGTQVTVSS	high polyreactivity
QVQLVESGGGLVQAGGSLRLSCAASGSIFYRNAMGWYRQAPGKERELVASISASGGRTYYADSVKGRLTISRDNAKNTVYFQMYSLNREETAFYYCNKVSPVAYWYSWGINFDFWGQGTQVTVSS	high polyreactivity
QVQLVESGGGLVQAGGSLRLSCAASGSIFYRNAMGWYRQAPGKERELVASISSSAGRTYYADSVKGRFTISRDNAKNTVYLQMNSLKPEDTAVYYCAVTSYRQRGAFDYWGQGTQVTVSS	high polyreactivity
QVQLVESGGGLVQAGGSLRLSCAASGSIFYRNAMGWYRQAPGKERELVASITSGGRTNYADSVKGRFTISRDNAKNTVYLQMNSLKPEDTAVYYCARGRASYTKSGPTPYTGYGYWGQGTQVTVSS	low polyreactivity
QVQLVESGGGLVQAGGSLRLSCAASGSIFYRNVMGWYRQAPGKERELVAAISWSGGSTYYADSVKGRFTISRDNAKNTVYLQMNSLKPEDTAVYYCAADIPKTGYPYAFEYWGQGTQVTVSS	low polyreactivity
QVQLVESGGGLVQAGGSLRLSCAASGSIFYRNVMGWYRQAPGKERELVAAITGSGGITYYADSVKGRFTISRDNAKNTVYLQMNSLKPEDTAVYYCNKTSFLVKLDYWGQGTQVTVSS	low polyreactivity
QVQLVESGGGLVQAGGSLRLSCAASGSIFYRYAMGWYRQAPGKERELVAAIRSRTGRTYYADSVKGRFTITRDNAKNTVYLQMNSLKQEDTAVYYCAADKYFSARFDYWGQGTQVTVSS	high polyreactivity
QVQLVESGGGLVQAGGSLRLSCAASGSIFYRYAMGWYRQAPGKERELVAAISSNGVSTYYADSVKGRFTISRDNAKNTVYLQMNSLKPEDTAVYCCARDVYASPRLYTSRYNYWGQGTQVTVSS	low polyreactivity
QVQLVESGGGLVQAGGSLRLSCAASGSIFYRYAMGWYRQAPGKERELVAAISSNGVSTYYADSVKGRFTISRDNAKNTVYLQMTSLNPEDTAVYYCARDVYASPRLYTSRYNYWGQGTQVTVSS	low polyreactivity
